Assay results reported in the supplement of paper PMC10567573.
± gives the standard deviation.

Assay: protein stability index of a GFP-peptide fusion (GPS, HEK-293T) (PSI 1-6); higher = more stable
Details: c terminus: a fixed tail appended
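Further: 24-mer peptide tiles fused after GFP, lentivirally expressed, FACS-sorted into six equal bins by GFP/DsRed ratio, decoded by Illumina sequencing, PSI is the read-weighted mean bin number.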

Row | Sequence | protein stability index (treatment: DMSO) | protein stability index (treatment: MLN4924 1 uM, 8 h)
1 | VRRLQALRLEREEYVLLKALALAN [ESRRA] | 2.18 ± 0.54 | 2.12 ± 0.31
2 | VDGAGKPGAEEAQDPEGKGEQEHS [CHGA] | 5.56 ± 0.18 | 5.3 ± 0.11
3 | ADDHRYKFADNKWSVTGKAEPAMP [TBX5] | 4.04 ± 0.17 | 4.2 ± 0.15
4 | HINSISVNSDYETYMSADDLRINL [PPP2R2B] | 3.15 ± 0.46 | 3.2 ± 0.54
5 | PIFVNSPTLDAPGGRALVVRKVPP [SMAD6] | 3.23 ± 0.059 | 3.34 ± 0.29
6 | SSSPASVTTEQLGAKMTERGSVAR [PXN] | 4.86 ± 0.42 | 4.76 ± 0.59
7 | SMPSYSSCTVTTVQPMDRLPYQHF [TBX5] | 2.56 ± 0.3 | 2.64 ± 0.17
8 | LLAVPNIILTNQSVREVTQIKCIE [P2RY14] | 2.53 ± 0.29 | 2.35 ± 0.21
9 | KGVQQKRPSEAQSVILRRYFLELT [DENND6A] | 2.47 ± 0.098 | 2.57 ± 0.22
10 | VPKVGQRFNRIGLPPKVGSFQLFV [PI4K2A] | 2.31 ± 0.78 | 2.34 ± 0.44
11 | KDHSCKDNIREAFQIYDKEASGYV [EFHC1] | 3.72 ± 0.31 | 3.81 ± 0.13
12 | NPIGHLPESLTKPDQVAPFTFLQP [ATF4] | 3.56 ± 0.11 | 3.8 ± 0.49
13 | GYRDYGHSRRHESYSRGYSYHDGY [RBMY1A1] | 2.64 ± 0.25 | 2.61 ± 0.45
14 | LPSERLDFSMAEALNQEFLATRSN [PRPH] | 4.24 ± 0.17 | 4.3 ± 0.2
15 | YCYRCGNQAAIMELDDTLKYSFLQ [PPP2CA] | 2.74 ± 0.58 | 2.58 ± 0.5
16 | STSYSPLASLPLKADTKGFCNISL [PLAGL1] | 2.38 ± 0.2 | 2.27 ± 0.2
17 | RQQGNPGHRSIYLALKLPDGSYAL [ADAMTS4] | 2.04 ± 0.23 | 2.2 ± 0.33
18 | WGKGARGRLGRRDEDAGLPRPVQL [NEK8] | 3.37 ± 0.23 | 3.48 ± 0.32
19 | DDATCRLYDLRADREVAIYSKESI [GNB5] | 3.51 ± 0.24 | 3.4 ± 0.17
20 | AQLYTLWVTFQVLLYTSLPDFCHK [DHCR7] | 2.88 ± 0.13 | 3.13 ± 0.18
21 | NGRACEMNGEECAEDLRMLDASGE [IKZF1] | 5.07 ± 0.51 | 5.36 ± 0.53
22 | VAVESMEPNNIVVLLQTSPYHVDS [TCF25] | 2.28 ± 0.38 | 2.13 ± 0.4
23 | RNLDGTLGYLLDKETLRLHPDIFL [ZER1] | 2.13 ± 0.27 | 2.05 ± 0.17
24 | GDGKSKKKQAGRPKGSKGKEKDSP [RBBP5] | 5.39 ± 0.29 | 5.34 ± 0.11

Row | Sequence | protein stability index (treatment: DMSO) | protein stability index (treatment: MLN4924 1 uM, 8 h)
25 | PGEQGGGKLVLSSLPKRLCLVCGD [ESRRA] | 2.79 ± 0.19 | 3.25 ± 0.29
26 | QDHFHVFVGDLSPEITTEDIKAAF [TIA1] | 2.73 ± 0.54 | 3 ± 0.33
27 | QSKPLLSAFADIIHSLKESGQLWL [FADS1] | 2.8 ± 0.4 | 2.87 ± 0.68
28 | QETLTNISAVNYDFDEEYFSNTSE [DAPK3] | 5.41 ± 0.26 | 5.41 ± 0.21
29 | VKKCIFLLFINHRLVESTSLRKAI [MLH1] | 3.14 ± 0.47 | 2.97 ± 0.73
30 | PILRLLPQGISPVSQHWATWALYN [ZER1] | 2.78 ± 0.37 | 2.95 ± 0.34
31 | MLSPQRVAAAASRGADDAMESSKP [ATL3] | 5.21 ± 0.22 | 5.25 ± 0.25
32 | LPPPPPPSRGGNQLPRPPIVGGNK [WAS] | 5.11 ± 0.6 | 5.01 ± 0.33
33 | GSTAITPGTPPSYSSRTPGTPGTP [MAP2] | 4.87 ± 0.2 | 4.98 ± 0.11
34 | TPLLIAARYGHLDVVEYLVDRCGA [FEM1A] | 2.05 ± 0.27 | 2.18 ± 0.15
35 | TISFGSVSPGGVKLEISTKEVPVV [EPB41L3] | 2.9 ± 0.21 | 3.31 ± 0.18
36 | SPGIGAVYLANQAKNQSDEAKEAK [RTP4] | 5.28 ± 0.22 | 5.28 ± 0.12
37 | SRQRQSRMEKGEPYMSIQPAEDPD [SMARCE1] | 5.55 ± 0.11 | 5.57 ± 0.33
38 | AAVVHHFESFPAGSTLIFYKYCDH [TOR1AIP2] | 2.37 ± 0.43 | 2.23 ± 0.52
39 | NMSREPFSTRALVLSILHATLPGI [SOAT2] | 3.18 ± 0.55 | 2.93 ± 0.62
40 | RRQQAKLKELQAIAERLGCTLPQL [KCNAB2] | 2.99 ± 0.17 | 3.19 ± 0.3
41 | AYEFNPELVLVSAGFDAARGDPLG [HDAC6] | 3.11 ± 0.58 | 3.58 ± 0.23
42 | VSLHQASLGGCSQDFLLFSPEVES [NFE2L1] | 2.06 ± 0.12 | 2.971 ± 0.02
43 | LLHMPQPVNPELTAGPITGLVYRL [TRIM43] | 2.26 ± 0.3 | 2.67 ± 0.36
44 | SEGACEKEKQSRDFQGRILSVDPE [RHOBTB1] | 5.22 ± 0.42 | 5.12 ± 0.35
45 | IDDLEDDPVVNGERSGCALTDAVA [TCF25] | 5.3 ± 0.19 | 5.37 ± 0.11
46 | SRPTGQQLESLGLLAPGEQSLPCT [KISS1] | 4.29 ± 0.16 | 4.38 ± 0.25
47 | QASSERLGLDNRLFGHPGLDMELG [ADAMTSL2] | 3.87 ± 0.12 | 4.02 ± 0.5
48 | FTTFRGTELSFLVTTHQPTNLVLP [EDNRA] | 2.84 ± 0.74 | 2.29 ± 0.37
